Reference: patent publication US20150025225A1 (SHIONOGI, published 2015)

T1: Baboon EL-C2 tag (baboon, UniProt Q9Y5X9 21-500 (human entry), limits assumed)
T1 construct: used as heparin extract of transfected HEK293F cells; also called baboon EL heparin extract
T1 chain: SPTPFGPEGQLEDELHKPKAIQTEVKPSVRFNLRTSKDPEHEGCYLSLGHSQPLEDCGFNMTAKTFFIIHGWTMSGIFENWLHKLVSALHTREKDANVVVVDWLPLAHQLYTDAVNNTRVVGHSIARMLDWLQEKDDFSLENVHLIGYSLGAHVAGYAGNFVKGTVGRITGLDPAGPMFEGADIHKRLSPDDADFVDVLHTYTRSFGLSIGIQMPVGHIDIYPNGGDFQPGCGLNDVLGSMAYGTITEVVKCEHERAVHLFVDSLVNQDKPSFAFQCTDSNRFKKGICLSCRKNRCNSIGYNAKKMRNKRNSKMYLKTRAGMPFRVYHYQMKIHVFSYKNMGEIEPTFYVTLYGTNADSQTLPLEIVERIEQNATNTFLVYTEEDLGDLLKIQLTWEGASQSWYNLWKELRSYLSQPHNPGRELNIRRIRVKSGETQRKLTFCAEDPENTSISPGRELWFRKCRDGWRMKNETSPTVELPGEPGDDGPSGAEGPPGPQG

T2: human EL[331-459]-mouse EL-C2 tag (human/mouse chimera, UniProt Q9WVG5 21-500 (mouse entry))
T2 construct: used as heparin extract of transfected HEK293F cells; also called human-mouse chimera EL; Human-Mouse chimeric EL
T2 chain: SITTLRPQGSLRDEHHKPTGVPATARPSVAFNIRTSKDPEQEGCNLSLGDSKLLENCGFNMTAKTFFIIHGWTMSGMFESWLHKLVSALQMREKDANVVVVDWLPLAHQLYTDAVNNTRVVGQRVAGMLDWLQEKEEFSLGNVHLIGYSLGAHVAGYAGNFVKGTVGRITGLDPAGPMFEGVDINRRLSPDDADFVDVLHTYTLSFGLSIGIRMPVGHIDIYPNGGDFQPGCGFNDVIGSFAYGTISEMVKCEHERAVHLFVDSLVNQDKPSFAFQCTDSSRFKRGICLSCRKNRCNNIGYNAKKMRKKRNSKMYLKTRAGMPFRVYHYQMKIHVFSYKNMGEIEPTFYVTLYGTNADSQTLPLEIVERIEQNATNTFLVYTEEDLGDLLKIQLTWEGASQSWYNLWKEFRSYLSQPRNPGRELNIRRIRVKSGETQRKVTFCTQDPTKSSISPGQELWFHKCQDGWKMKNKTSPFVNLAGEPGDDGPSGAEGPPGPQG

T3: rabbit EL-C2 tag (rabbit)
T3 construct: used as cell lysate or heparin extract; also called rabbit EL lysate; rabbit EL enzyme solution
T3 chain: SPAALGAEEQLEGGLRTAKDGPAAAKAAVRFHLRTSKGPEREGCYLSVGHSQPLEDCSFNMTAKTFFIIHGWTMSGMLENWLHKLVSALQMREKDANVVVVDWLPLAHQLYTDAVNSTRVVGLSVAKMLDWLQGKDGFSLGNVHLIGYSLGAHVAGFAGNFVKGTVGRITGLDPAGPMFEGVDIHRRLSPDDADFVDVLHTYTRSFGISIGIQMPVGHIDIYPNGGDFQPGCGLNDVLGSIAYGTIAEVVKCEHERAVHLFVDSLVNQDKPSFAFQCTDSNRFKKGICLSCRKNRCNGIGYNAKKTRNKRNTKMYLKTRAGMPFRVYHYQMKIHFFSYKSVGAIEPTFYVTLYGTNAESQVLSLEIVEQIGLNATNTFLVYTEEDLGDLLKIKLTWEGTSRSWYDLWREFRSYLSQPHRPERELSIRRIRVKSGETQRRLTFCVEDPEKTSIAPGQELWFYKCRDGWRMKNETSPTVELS

T4: human EL-C2 tag (human, UniProt Q9Y5X9 21-500)
T4 sequence: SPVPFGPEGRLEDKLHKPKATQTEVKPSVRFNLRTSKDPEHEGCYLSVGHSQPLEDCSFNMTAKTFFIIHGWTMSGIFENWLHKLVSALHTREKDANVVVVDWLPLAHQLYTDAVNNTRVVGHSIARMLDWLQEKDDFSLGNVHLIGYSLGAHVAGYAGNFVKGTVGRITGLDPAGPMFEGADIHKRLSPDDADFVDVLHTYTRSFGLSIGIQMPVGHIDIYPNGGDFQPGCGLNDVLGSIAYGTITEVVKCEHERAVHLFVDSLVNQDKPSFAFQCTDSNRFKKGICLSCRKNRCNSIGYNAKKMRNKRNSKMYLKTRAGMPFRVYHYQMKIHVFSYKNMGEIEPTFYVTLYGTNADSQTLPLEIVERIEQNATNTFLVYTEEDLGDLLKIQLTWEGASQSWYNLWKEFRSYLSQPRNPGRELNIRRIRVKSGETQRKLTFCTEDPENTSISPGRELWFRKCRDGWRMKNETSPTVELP

T5: human EL-411-459 fragment (human)
T5 construct: Used as HEK293 lysate
T5 chain: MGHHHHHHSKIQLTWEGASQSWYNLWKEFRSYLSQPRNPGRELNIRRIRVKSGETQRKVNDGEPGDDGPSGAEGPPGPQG


Columns and labels:
Baboon EL-C2 tag = target: T1, Baboon EL-C2 tag; experiment: ELISA-type titration, A450 against antibody concentration; protocol not described in the text
[1] = target: T2, human EL[331-459]-mouse EL-C2 tag; experiment: as above
rabbit EL-C2 tag = target: T3, rabbit EL-C2 tag; experiment: as above
human EL-C2 tag = target: T4, human EL-C2 tag; experiment: cell-based or functional assay
[2] = target: T5, human EL-411-459 fragment; experiment: sandwich ELISA: 12B10 (5 ug/mL) captured on anti-mouse IgG-Fc plate, serial dilutions of fragment lysate, detection with biotin anti-C2-tag Fab and HRP-streptavidin, A450
Protocol: Assay buffer containing 15 μl of 12B10 antibody (5 μg/mL) was added to immobilized plate of anti-mouse IgG-Fc antibody and incubated for 2 hr. […] After washing the wells three times with 90 μl of washing buffer, 15 μL of assay buffer containing biotin-labeled anti-C2-tag (Fab) antibody and HRP-labeled Streptavidin (Thermo scientific) were added to the wells and incubated at room temperature for 1 hr. After washing the wells three times with 90 μl of washing buffer, 15 μL of TMB+-Substrate-Chromogen (DAKO) was added and incubated at room temperature for 30 min. The reaction was stopped with adding 15 μL of 0.05M H₂SO₄ and then measured absorbance 450 nm.

| EC50 (read off the curve) (Baboon EL-C2 tag) [ng/mL] | EC50 (read off the curve) [1] [ng/mL] | EC50 (read off the curve) (rabbit EL-C2 tag) [ng/mL] | IC50 of EL enzyme activity (NEFA release from HDL) (human EL-C2 tag) [nM] | binding result [2] | Binder |
| --- | --- | --- | --- | --- | --- |
| ~10 | ~10 | ~7 | – | – | 47B2 antibody (antibody, IgG2a, V domains shown) VH: QVALKESGPGILQPSQTLSLTCSFSGFSLSTSGMGVGWIRQPSGKGLEWLAHIWWHGNKYYSTGLKSRLTISKDTSNNQVFLKIASVDTADTATYYCARISAGYPLDYWGQGTSVTVSS VL: DIQMTQSPSSLSASLGGKVTITCKASQDINKYIVWYQHKPGKGPRLLIHYTSTLQPGFPSRFSGSGSGRDYSLSITNLEPEDIATYYCLQYDNLLWTFGGGTKLEIK |
| – | – | – | 47 | binds | 12B10 antibody (antibody, IgG2a, V domains shown) VH: QVTLKESGPGILKPSQTLSLTCSFSGFSLSTSGMGVGWIRQPSGKGLEWLAHIWWNDEKYYNPSLKSQLTISKDTSRNQVFLKITSVDTADTATYYCARSYDGSPFPSWGQGTLVTVSA VL: DIQMTQSPSSLSASLGGKVTITCKASQDINKYIAWFQHKPGKGPRLLMAYPFTLQPGIPSRFSGNGSGRDYSFSISNLEPEDIATYYCLQYDNLLWTFGGGTRLEIK |
